According to the nanobody polyreactivity screen of Harvey et al. (2022):

Assay: yeast display, Sf9 membrane polyspecificity reagent, FACS + sequencing; frameworks hold sequencing errors
How it was run: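 After 36–48 hours of galactose induction, yeast (Saccharomyces cerevisiae BJ5465) displaying a synthetic nanobody library were stained at 4 °C for 1 hour with 10% biotinylated, detergent-solubilized Sf9 membrane reagent. Streptavidin microbeads enriched the stained cells before FACS sorting into low and high (top ~1%) gates on anti-HA and streptavidin fluorescence. Each clone's polyreactivity label reflects its gate of origin.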

Row | Sequence | polyreactivity (PSR sort gate)
1 | QVQLVESGGGLVQAGGSLRLSCAASGRTFEGNAMGWYRQAPGKERELVAAINSSGGSTYYADSVKGRFTISRDNAKNTVYLQMNSLKPEDTAVYYCNAVAGPQGVKLYDYWGQGTQVTVSS | low polyreactivity
2 | QVQLVESGGGLVQAGGSLRLSCAASGRTFDYYAMGWYRQAPGKERELVAAISSTGTSTYYGDSVKGRFTISRDNAKNTVYLQMNRLKPVDTAVYYCSAVSWYEYDYWGQGTQVSVSS | high polyreactivity
3 | QVQLVESGGGLVQAGGSLRLSCAASGSIISGNVMGWYRQAPGKEREFVATISWRGGNTYYADSVKGRFTISRDNAKNTVYLQMNSLKPEETAVYDCATRRLYSKSWYYYWGQGTQVTVSS | high polyreactivity
4 | EVQLQESGGGLVQAGGSLRLSCAASGYTYNEYVMGWYRQATGKERELVAAISGSGGSTYYADSVKGRFTISRDNAKNTVYLQMNSLKPEDTAVYYCAARGYNSRGYDMDYWGQGTQVTVSS | high polyreactivity
5 | QVHLVESGGGLVQAGGSLRLSCAASGYTFQWYDRGWYRQAPGKERELVASISWRGGSTYYADSVKGRFTISRDNAKNTVYLQMNSLKPEDTAVYYCAASLWPDYEYVYWGQGTQVTVSS | low polyreactivity
6 | QVQLVESGGGLVQAGGSLRLSCAASGITILRYAMGWYRQAPGKERELVARITRSGGSTYYADSVKGRFTISRDNAKNTVYLQMNSLKPEDTAVYYCNDVRSAGDGDYWGQGTQVTVSS | high polyreactivity
7 | QVQLEESGGGLVQAGGSLRLSCAASGSILESNVMGWYRQAPGKERELVASISSSGDSTYADSVKGRFTISRDNAKNTVYLQMNSLKPEDTAVYYCAADRWYWTYALYYWGQGTQVTVSS | low polyreactivity
8 | QVQLVESGGGLVQAGGSLRLSCAASGSTFGTYAMGWYRQEPGKERELVAAIRWSGVSTYYADSVKGRFTISRDNAKNTVYLQMNSLKPEDTAVYYCAVALWVRGTYIYEYWGQGTQVTVSS | high polyreactivity
9 | QVQLVDSGGGLVQAGGSLRLSCAASGSIFPRYAMGWYRQAPGKERELVASISASGGSTYYADSVKGRFTISRDNAKITVYLQMYSLKPEDTAVYYCAKADRTGWLDGDYWGQGTQVTVSS | low polyreactivity
10 | QVHLVESGGGLVQAGGSLRLSCAASGSIFVHNAMGWYRQAPGKESELVAGISARGASTYYADSVKGRFTISRDNAKNTVYLQMKSLKPEDTAVYYCAADRIPGYRVYGFYYWGQGTQVTVSS | low polyreactivity
11 | QVHLVESGGGLVQAGGSLRLSCAASGNSFTGNAMGWYRQAPGKETELVAALSKRGGSTFYADSVKGRFTISRDNPKNTVYLQLNRLKPEDTAVYYCNALRRGVRDPYGYWGQGTQVTVSS | high polyreactivity
12 | QVQLVESGGGLVQAGGSLRLSCAASGFIIAYYAMGWYRQAPGKEREWVAAITSDGGSTYYADSVKGRFTISRDNAKNTVYLQMNSLKPEDTAVYYCAAQGYPYGRLWGGYYRYDYWGQGTQVTVSS | high polyreactivity
13 | QFQLVESGGGLVQAGGSLRLSCAASGSICVLYPMGWYRQAPGKERELVAAITSGASTNYADSVKGRFTISRDNAKNTVYLQMNSQKPEDTAVYYCNTGSRLDRVDSWGQGTQLTVSS | low polyreactivity
14 | QVQLVESGGGLVQAGGSLRLSCAASGGTFKTNAMGWYRQAPGTERELVAAIRYSGGDTYYADSVKGRFTISRDNAKNTVYLLLKSLKPEDTAVYYCAADFTLLYDYWGQGTQVTVSS | low polyreactivity
15 | QVQLVESRGALVQAGASLRLSCAASALTFVKNVMGWYRQAPGKERELVAAISSGGSTYADSVKGRFTISRDNAKNTVYLQMNSLKPEDTAVYYCNADFRARNYHYYPRRFKYYYWGQGTQVTVSS | high polyreactivity
16 | QVQLVESGRGLVQAGGSLRLSCAASGITFNFYAKGWYRKAPGKERELVAAITQSGGSTYYADSVKGRFTISRDNAKNTVYLQMISLKPEDTAVYYWAAARTGHMYDLGQGTQVTVSS | high polyreactivity
17 | QVQLVESGGGLVQAGGSLRLSCAASGSTFIPYAMGWYRQAPGKERELVAAISFNDGITYYADSVKGRFKISRDNAKNTVYLQMNSLKPEDTAVYYCAAEDWSDYPYGMDYWGQGTQVTVSS | high polyreactivity
